Results as given in patent US20110319600A1.

B1: B-3 monoclonal antibody (antibody, V domains shown)
VH: QVKLVQSGGGAVQPGRSLRLSCEASGFDFTVYDIHWVRQAPGKGLEWVASIWHNGGKAYYADSVKGRFTVSRDNPQKTVYLQMSGLRPEDTATYYCAREFPFMGIYDYGMDAWGQGTTVTVAS
VL: QSVLAQPPSASGTPGQRVIISCSGTSSNIGGNSVNWYQHPPGAAPRLLIYTTDQRPSGVPDRFSGSKSGTSASLAISGLQSEDEADYYCEVWDDSLTRPVFGGGTKLTVL
B2: E-2 monoclonal antibody (antibody, V domains shown)
VH: QVQLQESGPGLVKPLQTLSLTCVVSGDSISRGGYYWSWVRQPPERGLEWIGDIYHSGSTNYNPALKSRTTISVETSKNQFSLQLNSVTAADTAVYYCAREPPPDYSDYKVGKGYFDYWGQGALVTVSS
VL: EIVLAQSPATLSLSPGERATLSCRASETVDTYLAWYQQKPGQAPRLLINDASKRATGIPARFSGSGSGTDFTLTISGLEPEDFAVYWCQQHSNWPPTFGQGSRLEIK

Assays:
[1] = molecular target: hemagglutinin (HA) of human influenza B virus, B/Malaysia/2506/04 strain (human influenza B virus, B/Malaysia/2506/04 strain); assay: cell-based or functional assay
[2] = molecular target: hemagglutinin (HA) of human influenza B virus, B/Victoria/2/87 strain (human influenza B virus, B/Victoria/2/87 strain)
[3] = molecular target: hemagglutinin (HA) of human influenza B virus, B/Shanghai/261/02 strain (human influenza B virus, B/Shanghai/261/02 strain)
[4] = molecular target: hemagglutinin (HA) of human influenza B virus, B/Mie/1/93 strain (human influenza B virus, B/Mie/1/93 strain)
[5] = molecular target: hemagglutinin (HA) of human influenza B virus, B/Malaysia/2506/04 strain (human influenza B virus, B/Malaysia/2506/04 strain)

Sequence of hemagglutinin (HA) of human influenza B virus, B/Victoria/2/87 strain (human influenza B virus, B/Victoria/2/87 strain) (P22092 16-585): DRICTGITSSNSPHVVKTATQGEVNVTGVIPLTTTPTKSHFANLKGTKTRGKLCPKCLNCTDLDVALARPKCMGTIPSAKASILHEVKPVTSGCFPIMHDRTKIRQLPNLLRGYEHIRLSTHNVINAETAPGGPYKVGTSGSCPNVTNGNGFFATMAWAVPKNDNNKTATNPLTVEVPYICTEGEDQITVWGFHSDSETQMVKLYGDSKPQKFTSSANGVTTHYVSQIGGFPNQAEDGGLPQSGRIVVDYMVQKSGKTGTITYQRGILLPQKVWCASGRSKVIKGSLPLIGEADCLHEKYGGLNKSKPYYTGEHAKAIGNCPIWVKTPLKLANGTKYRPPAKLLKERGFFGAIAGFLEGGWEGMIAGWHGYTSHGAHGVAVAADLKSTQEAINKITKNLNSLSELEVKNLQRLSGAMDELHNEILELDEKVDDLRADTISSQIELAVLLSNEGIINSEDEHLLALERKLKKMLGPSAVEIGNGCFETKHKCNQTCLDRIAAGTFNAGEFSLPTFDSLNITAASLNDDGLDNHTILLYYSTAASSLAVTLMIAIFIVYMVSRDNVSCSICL

Binder	HI activity [1]	Neutralization activity (% inhibition) [1] [% inhibition]	staining activity [2]	staining activity [3]	staining activity [4]	staining activity [5]
B1	< 2	31.7	32	32	32	8
B2	< 2	37.8	> 128	> 128	128	128
